Reference: patent US20230322857A1, “RECOMBINANTLY ENGINEERED POLYPEPTIDES CAPABLE OF RECYCLING NONCANONICAL COFACTORS” (The Regents of the University of California, priority 2022, published 2023)

Tests used:
Assay type in all cases: biochemical
[1] = Steady-state kinetics of TS-PTDH variants with NAD^+; conditions: 100 mM MOPS, pH 7.25, 10 mM sodium phosphite, varied cofactor concentrations; n = 3
[2] = Steady-state kinetics of TS-PTDH variants with NMN^+
[3] = BNA(H)-mediated PTDH biotransformation with TsOYE
Experimental: BNA(H)-Mediated PTDH Biotransformation. Reactions with BNA^+, see FIG. 10D, contained 100 mM MOPS-NaOH at pH 7.6, 10 mM KIP, 100 mM sodium phosphite, and 2% v/v DMSO. BNA^+Cl^−, prepared by refluxing equimolar amounts of nicotinamide and benzyl chloride in acetonitrile overnight, followed by precipitation with diethyl ether on ice was supplied to the reactions at final concentrations of 0, 5, 10, or 20 mM. Reactions were initiated by spiking TsOYE and the appropriate TS-PTDH variant to a final concentration of 10 μM, each. Reaction mixtures were incubated at 30° C. on a Thermomixer C (Eppendorf) with shaking at 900 rpm for 24 h, extracted with 500 μL ethyl acetate containing 5 mM n-dodecane, and analyzed by GC-FID. The cycling system with no BNA was used to determine the background activity of the cycling systems. This value was subtracted from the final levodione concentrations in the 5-, 10-, and 20-mM samples to determine the BNA(H)^− specific levodione production. Concentrations of levodione product were determined using a calibration line (0-10 mM, 6 levels, using n-dodecane as internal standard). The y-intercept of the calibration line was forced through 0.
For BNA(H)-mediated reactions, gas chromatography analyses were performed on a GC-2010 (Shimadzu, Japan) equipped with an AOC-20i auto injector and a flame ionization detector (FID), using a CP-Sil 5 column (25 m×0.25 mm×[…]). 1 μL of sample was injected with a split ratio of 100:1 and injector at 340° C. The FID was maintained at 360° C. Nitrogen was used as the carrier gas, with a linear velocity of 30 cm/s. The oven was held at 135° C. for 1 min, ramped at 15° C./min to 215° C., then 30° C./min to 345° C., and held at 345° C. for 1 min.
Expression and Purification of Proteins for BNA(H)-Mediated Biotransformation Reactions. E. coli BL21(DE3) strains were transformed with the plasmids containing the TS-PTDH variants and grown on LB-agar plates containing ampicillin at 37° C. overnight. An overnight culture, 15 mL LB supplemented with ampicillin, was inoculated with a single colony, and grown at 37° C., 170 rpm overnight. 2 L baffled shake-flasks with 250 mL of 2×YT media containing 200 μg/mL ampicillin, were inoculated with the overnight culture, grown at 37° C., 170 rpm until OD600 of ˜1.0, induced with IPTG (0.5 mM), and grown at 30° C. and 170 rpm for 24 h. Cells were harvested by centrifugation at 18,000×g, 4° C., 10 min and stored at −20° C. until purification.
The pellet was resuspended in four volumes loading buffer (50 mM sodium phosphate, 300 mM sodium chloride, 10 mM imidazole, pH 7.7), and lysed on ice by sonication (Branson sonifier 250; 15 min total, 40% duty cycle, output control 3.5, 2 mm tip). The lysate was clarified (21,000×g, 4° C., 30 min followed by 0.2 μm filtration), and loaded (1 mL/min) onto a Nickel-HisTrap FF crude (1 mL) column, washed with loading buffer (12 column volumes, CV), followed by a step with 10% elution buffer (loading buffer containing 250 mM imidazole; 12 CV). The protein was then eluted with 100% elution buffer and collected in fractions of 0.5 mL. Fractions containing protein were combined and dialyzed against ice-cold dialysis buffer (50 mM sodium phosphate, pH 7.7, 800 mL); the buffer was renewed after the first 2 h of dialysis. Following the dialysis, the protein was mixed with glycerol (20% v/v final concentration). Enzyme concentrations were estimated by the absorbance at 280 nm (non-denatured protein), using predicted extinction coefficients (wild type and LY-13: 26470, LY-7: […]; web.expasy.org/protparam/). The protein was aliquoted, flash frozen in liquid nitrogen, and stored at −80° C. until use. […]

[4] = 100 mM MOPS, pH 7.25, 10 mM sodium phosphite, varied cofactor concentrations, n = 3

B1: LY-13: phosphite dehydrogenase variant with A155N, E175A, A176F (SEQ ID NO: 6) (protein)
chain: MLPKLVITHRVHEEILQLLAPHCELITNQTDSTLTREEILRRCRDAQAMMAFMPDRVDADFLQACPELRVIGCALKGFDNFDVDACTARGVWLTFVPDLLTVPTAELAIGLAVGLGRHLRAADAFVRSGKFRGWQPRFYGTGLDNATVGFLGMGNIGLAMADRLQGWGATLQYHAFKALDTQTEQRLGLRQVACSELFASSDFILLALPLNADTLHLVNAELLALVRPGALLVNPCRGSVVDEAAVLAALERGQLGGYAADVFEMEDWARADRPQQIDPALLAHPNTLFTPHIGSAVRAVRLEIERCAAQNILQALAGERPINAVNRLPKANPAAD
Km [1]: 180 ± 30 µM | NAD^+ kcat [1]: 2.06 ± 0.11 s⁻¹ | Km [2, 4]: 620 µM | NMN^+ kcat [2, 4]: 0.27 ± 0.01 s⁻¹ | increase in catalytic efficiency for NMN^+ compared to TS-PTDH (wild type enzyme) ([2]; vs TS-PTDH): ~110 fold | increased catalytic efficiency (kcat/Km) for NMN^+ compared to TS-PTDH A155N ([2]; vs parent enzyme TS-PTDH A155N): ~44 fold | activity / cycling with BNA^+ compared to wild type [3]: enhanced activity for BNA^+ reduction | response of biotransformation efficiency to BNA^+ concentration ([3]; 0, 5, 10, or 20 mM BNA^+): cofactor dose-dependent response | utilization of the BNA^+ pool relative to the wild type protein ([3]; 20 mM BNA^+ supplementation, TsOYE, 24 h): improved utilization of the BNA^+ pool
